Results from the FLAb antibody collection (doi:10.7554/elife.23156).

B1: scFv; the commonest letter at each place (parent)
chain 1: EVKLDETGGGLVQPGRPMKLSCVASGFTFSDYWMNWVRQSPEKGLEWVAQIRNKPYNYETYYSDSVKGRFTISRDDSKSSVYLQMNNLRVEDMGIYYCTGSYYGMDYWGQGTSVTVS
chain 2: DVVMTQTPLSLPVSLGDQASISCRSSQSLVHSNGNTYLRWYLQKPGQSPKVLIYKVSNRFSGVPDRFSGSGSGTDFTLKISRVEAEDLGVYFCSQSTHVPWTFGGGTKLEIK

Key:
fluorescein = variants of: B1; experiment: Kd (Tite-Seq); details: with fluorescein; format: scFv 4-4-20, heavy + light
[1] = variants of: B1; experiment: yeast surface expression (ratio to wild type); higher = more expressed; details: format: scFv 4-4-20, heavy + light

Row | Kd (fluorescein) | Variant | yeast surface expression [1]
1 | 0.00785 µM | chain 1 D106T | 1.09
2 | ≥ 10 µM | chain 1 D106T W108Q | 0.5
3 | 5.37 µM | chain 1 D106T Y107V | 0.829
4 | ≥ 10 µM | chain 1 D106W G109K | 0.167
5 | ≥ 10 µM | chain 1 D106W W108F | 0.225
6 | ≥ 10 µM | chain 1 D106W Y107G G109L | 0.109
7 | ≥ 10 µM | chain 1 D106W Y107I | 0.31
8 | ≥ 10 µM | chain 1 D106Y | 0.51
9 | ≥ 10 µM | chain 1 D106Y G109Q | 0.171
10 | 0.0221 µM | chain 1 F29A | 0.974
11 | ≥ 10 µM | chain 1 F29A M34V | 0.827
12 | ≥ 10 µM | chain 1 F29A S30D M34K | 0.41
13 | 3.94 µM | chain 1 F29A S30V | 0.758
14 | ≥ 10 µM | chain 1 F29C D31M | 0.669
15 | 9.5 µM | chain 1 F29C S30T N35E | 0.668
16 | ≥ 10 µM | chain 1 F29C W33E | 0.556
17 | ≥ 10 µM | chain 1 F29D | 1.07
18 | ≥ 10 µM | chain 1 F29D N35F W36G | 0.644
19 | ≥ 10 µM | chain 1 F29D S30A | 0.941
20 | ≥ 10 µM | chain 1 F29D V37D | 0.557

Row | Kd (fluorescein) | Variant | yeast surface expression [1]
21 | ≥ 10 µM | chain 1 F29D W33L | 0.795
22 | ≥ 10 µM | chain 1 F29D W33V | 0.87
23 | ≥ 10 µM | chain 1 F29D W33Y | 0.766
24 | ≥ 10 µM | chain 1 F29D Y32C | 0.924
25 | 6.61 µM | chain 1 F29D Y32K W33Y | 1.18
26 | ≥ 10 µM | chain 1 F29E M34E | 0.455
27 | 0.00672 µM | chain 1 F29E N35I | 0.276
28 | ≥ 10 µM | chain 1 F29G | 0.925
29 | ≥ 10 µM | chain 1 F29G D31R | 0.931
30 | ≥ 10 µM | chain 1 F29G S30E | 1
31 | ≥ 10 µM | chain 1 F29G S30K | 1.04
32 | ≥ 10 µM | chain 1 F29G S30N | 0.933
33 | ≥ 10 µM | chain 1 F29G W36M | 0.478
34 | ≥ 10 µM | chain 1 F29G Y32Q | 0.991
35 | 0.00251 µM | chain 1 F29H N35V | 2.76
36 | 0.00707 µM | chain 1 F29H V37R | 
37 | ≥ 10 µM | chain 1 F29H W33R | 0.182
38 | ≥ 10 µM | chain 1 F29I D31E Y32T | 0.84
39 | ≥ 10 µM | chain 1 F29I N35P | 2.62
40 | ≥ 10 µM | chain 1 F29I N35R | 0.852

Further lines, the variant ahead of its results:

Row | Variant | Kd (fluorescein) | yeast surface expression [1]
41 | chain 1 D106R G109H | ≥ 10 µM | 0.486
42 | chain 1 D106R Y107D | ≥ 10 µM | 0.462
43 | chain 1 D106R Y107N | ≥ 10 µM | 0.359
44 | chain 1 D106S | 0.00279 µM | 1.16
45 | chain 1 D106S W108V | 0.55 µM | 0.859
46 | chain 1 D106T G109M | ≥ 10 µM | 0.285
47 | chain 1 D106T G109R | ≥ 10 µM | 0.26
48 | chain 1 D106V | ≥ 10 µM | 0.734
49 | chain 1 D106V W108N | ≥ 10 µM | 0.371
50 | chain 1 D106W | ≥ 10 µM | 0.339
51 | chain 1 D106W G109A | ≥ 10 µM | 0.168
52 | chain 1 D106W G109D | ≥ 10 µM | 0.186
53 | chain 1 D106W G109V | ≥ 10 µM | 0.0997
54 | chain 1 D106W W108K | ≥ 10 µM | 0.243
55 | chain 1 D106W W108S | ≥ 10 µM | 0.325
56 | chain 1 D106W Y107F | ≥ 10 µM | 0.264
57 | chain 1 D106W Y107L | ≥ 10 µM | 0.308
58 | chain 1 D106W Y107N | ≥ 10 µM | 0.222
59 | chain 1 D106Y G109D | ≥ 10 µM | 0.224
60 | chain 1 D106Y G109K | ≥ 10 µM | 0.136
61 | chain 1 F29A D31P | ≥ 10 µM | 0.922
62 | chain 1 F29A M34A | ≥ 10 µM | 0.738
63 | chain 1 F29A M34G | ≥ 10 µM | 0.656
64 | chain 1 F29A M34K V37T | ≥ 10 µM | 0.628
65 | chain 1 F29A M34R | ≥ 10 µM | 1.01
66 | chain 1 F29A M34S | ≥ 10 µM | 0.612

Row | Variant | Kd (fluorescein) | yeast surface expression [1]
67 | chain 1 F29A V37I | 0.0851 µM | 0.834
68 | chain 1 F29A V37P | ≥ 10 µM | 0.153
69 | chain 1 F29A V37S | ≥ 10 µM | 0.545
70 | chain 1 F29A W33I | ≥ 10 µM | 0.852
71 | chain 1 F29A W33N | ≥ 10 µM | 0.741
72 | chain 1 F29A W36A | ≥ 10 µM | 0.822
73 | chain 1 F29A W36H | ≥ 10 µM | 0.912
74 | chain 1 F29A W36S | ≥ 10 µM | 0.313
75 | chain 1 F29A Y32N | ≥ 10 µM | 0.832
76 | chain 1 F29C | 0.195 µM | 0.885
77 | chain 1 F29C D31Y | ≥ 10 µM | 0.522
78 | chain 1 F29C M34K W36I | ≥ 10 µM | 0.425
79 | chain 1 F29C N35I | ≥ 10 µM | 1.12
80 | chain 1 F29C N35K | ≥ 10 µM | 1.18
81 | chain 1 F29C S30C | ≥ 10 µM | 0.693
82 | chain 1 F29C V37E | 6.96 µM | 0.973
83 | chain 1 F29C V37M | 0.02 µM | 0.763
84 | chain 1 F29C W33G | ≥ 10 µM | 0.544
85 | chain 1 F29C W33Q | ≥ 10 µM | 0.687
86 | chain 1 F29C W36V | ≥ 10 µM | 0.635
87 | chain 1 F29D D31E | ≥ 10 µM | 1.01
88 | chain 1 F29D M34I | ≥ 10 µM | 0.946
89 | chain 1 F29D S30K | ≥ 10 µM | 0.968
90 | chain 1 F29D V37A | ≥ 10 µM | 0.907
91 | chain 1 F29D W33C M34D | ≥ 10 µM | 0.403
92 | chain 1 F29D W36H | ≥ 10 µM | 0.505

Row | Variant | Kd (fluorescein) | yeast surface expression [1]
93 | chain 1 F29D Y32E | ≥ 10 µM | 0.599
94 | chain 1 F29E | ≥ 10 µM | 0.778
95 | chain 1 F29E D31G N35R | ≥ 10 µM | 0.621
96 | chain 1 F29E D31R | ≥ 10 µM | 0.624
97 | chain 1 F29E N35T | ≥ 10 µM | 0.578
98 | chain 1 F29E Y32V | ≥ 10 µM | 0.811
99 | chain 1 F29G D31E | ≥ 10 µM | 0.955
100 | chain 1 F29G D31Y | ≥ 10 µM | 0.708
101 | chain 1 F29G N35I | ≥ 10 µM | 0.645
102 | chain 1 F29G S30T N35R | ≥ 10 µM | 0.82
103 | chain 1 F29G W33K | ≥ 10 µM | 0.65
104 | chain 1 F29H | 3.74 µM | 0.884
105 | chain 1 F29H W36C | ≥ 10 µM | 0.281
106 | chain 1 F29H W36D | ≥ 10 µM | 0.486
107 | chain 1 F29H W36Q | ≥ 10 µM | 0.693
108 | chain 1 F29I | 0.00325 µM | 1.01
109 | chain 1 F29I D31K | 0.00493 µM | 0.958
110 | chain 1 F29I M34T | ≥ 10 µM | 0.54
111 | chain 1 F29I N35A | ≥ 10 µM | 0.817
112 | chain 1 F29I N35I | ≥ 10 µM | 0.383
113 | chain 1 F29I S30E | 0.00343 µM | 0.929
114 | chain 1 F29I S30L | 0.676 µM | 0.564
115 | chain 1 F29I S30R D31E | 0.228 µM | 0.688
116 | chain 1 F29I V37D | ≥ 10 µM | 1.12
